Reference: paper PMC9283966

Assays:
Settings in all cases: glycan lost
[1] = Western blot of thrombin-antithrombin complexes
[2] = chromogenic anti-FXa assay, recombinant protein
[3] = Western blot of conditioned medium
[4] = control: wild type (Ser169 background)
[5] = control: β antithrombin (Ala169)

Substance | other: protease inhibitory activity [1, 4] | other: protease inhibitory activity, other: anti-FXa activity [2, 4] | expression_or_secretion [3, 4] | other: protease inhibitory activity [1, 5] | other: protease inhibitory activity, other: anti-FXa activity [2, 5] | expression_or_secretion [3, 5]
antithrombin: p.Asn224His | no change | no change, 1.38 vs 1.39 | decreases | – | – | –
antithrombin: His224 in β background | – | – | – | abolishes | abolishes | decreases
